Experimental data as given in article PMC8466238, “Development of High Affinity Calcitonin Analog Fragments Targeting Extracellular Domains of Calcitonin Family Receptors” (Biomolecules, 2021).
Several values for one entry are separate records, joined by “and”; a condition that tells them apart may be missing. Equal values may be shown once. Read-outs that look alike come from different tables or passages of the source. Where a SMILES comes first, the peptide text is derived from it. Where no end group is shown, it is not given here. [ ]: non-standard residue; d: D form. Hyp = O=C(O)[C@@H]1C[C@@H](O)CN1

T1: CTR ECD (Homo sapiens, UniProt P30988)
T1 construct: pHLsec/hCTR.34–141-H6 (H-pSL003); H6 (His6) (C); made in house; host or cells: HEK293T
T1 sequence (P30988 34-141): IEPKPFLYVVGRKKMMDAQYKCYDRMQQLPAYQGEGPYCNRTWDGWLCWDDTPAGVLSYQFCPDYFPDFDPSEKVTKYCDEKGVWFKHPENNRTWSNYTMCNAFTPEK

T2: calcitonin receptor extracellular domain (hCTR.34–141-H6) (human, UniProt P30988 34-141)
T2 construct: human calcitonin receptor (CTR), extracellular domain, residues 34-141; Secreted from a pHLsec-based vector; also called CTR ECD; purified CTR ECD; source: HEK293T, transiently transfected, secreted to cell culture media, purified (IMAC, SEC)
T2 sequence (looked up): T1 sequence (P30988 34-141)

T3: RAMP2-CTR ECD fusion protein (hRAMP2.55–140-(GSA)3-hCTR.34–141-H6) (human, UniProt O60895 55-140; P30988 34-141)
T3 construct: human receptor activity-modifying protein 2 (RAMP2), extracellular domain, residues 55-140; linker, printed as (GSA)3; human calcitonin receptor (CTR), extracellular domain, residues 34-141; Secreted from a pHLsec-based vector; also called AMY receptor 2 ECD; RAMP2 ECD-CTR ECD fusion; source: HEK293T, transiently transfected, secreted to cell culture media, purified (IMAC, SEC)
T3 chain: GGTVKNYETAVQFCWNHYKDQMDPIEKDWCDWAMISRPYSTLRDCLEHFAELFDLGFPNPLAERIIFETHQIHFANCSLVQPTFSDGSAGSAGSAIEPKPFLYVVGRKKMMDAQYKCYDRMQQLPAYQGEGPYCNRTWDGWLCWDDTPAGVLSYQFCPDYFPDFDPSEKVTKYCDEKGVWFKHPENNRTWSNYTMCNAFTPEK

T4: RAMP3-CTR ECD fusion protein (hRAMP3.25–112-(GSA)3-hCTR.34–141-H6) (human, UniProt O60896 25-112; P30988 34-141)
T4 construct: human receptor activity-modifying protein 3 (RAMP3), extracellular domain, residues 25-112; linker, printed as (GSA)3; human calcitonin receptor (CTR), extracellular domain, residues 34-141; Secreted from a pHLsec-based vector; also called AMY receptor 3 ECD; RAMP3 ECD-CTR ECD fusion protein; source: HEK293S GnTI-, transiently transfected (PEI), secreted to cell culture media, purified (IMAC, SEC)
T4 chain: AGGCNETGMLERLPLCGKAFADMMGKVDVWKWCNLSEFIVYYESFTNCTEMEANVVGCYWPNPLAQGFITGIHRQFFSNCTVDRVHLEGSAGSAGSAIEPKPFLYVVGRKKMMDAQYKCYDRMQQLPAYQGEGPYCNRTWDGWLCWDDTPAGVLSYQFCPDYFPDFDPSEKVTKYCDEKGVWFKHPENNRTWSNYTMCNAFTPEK

T5: RAMP1-CTR ECD fusion protein (hRAMP1.24–111-(GSA)3-hCTR.34–141-H6) (human, UniProt O60894 24-111; P30988 34-141)
T5 construct: human receptor activity-modifying protein 1 (RAMP1), extracellular domain, residues 24-111; linker, printed as (GSA)3; human calcitonin receptor (CTR), extracellular domain, residues 34-141; Secreted from a pHLsec-based vector; also called AMY receptor 1 ECD; RAMP1 ECD-CTR ECD fusion; source: HEK293T, transiently transfected, secreted to cell culture media, purified (IMAC, SEC)
T5 chain: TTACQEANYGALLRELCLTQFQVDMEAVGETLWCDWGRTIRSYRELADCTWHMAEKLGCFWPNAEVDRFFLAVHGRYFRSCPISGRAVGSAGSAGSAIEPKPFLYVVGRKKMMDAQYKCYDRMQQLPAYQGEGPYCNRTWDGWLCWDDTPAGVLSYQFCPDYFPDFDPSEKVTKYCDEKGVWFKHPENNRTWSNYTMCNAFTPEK

B1: sCT(22–32) P32HYP (peptide)
peptide: YPRTNTGSGT[Hyp]-NH2
modifications: N-terminus assumed
SMILES: C[C@@H](O)[C@H](NC(=O)[C@H](CC(N)=O)NC(=O)[C@@H](NC(=O)[C@H](CCCNC(=N)N)NC(=O)[C@@H]1CCCN1C(=O)[C@@H](N)Cc1ccc(O)cc1)[C@@H](C)O)C(=O)NCC(=O)N[C@@H](CO)C(=O)NCC(=O)N[C@H](C(=O)N1C[C@H](O)C[C@H]1C(N)=O)[C@@H](C)O
notes: salmon calcitonin (sCT), residues 22-32, with P32HYP; numbers count on: the mature 32-residue hormone; Residue 32 is hydroxyproline, not plain proline; source: synthetic peptide (Genscript, HPLC-purified)
B2: sCT(22–32) (peptide)
peptide: YPRTNTGSGTP-NH2
notes: salmon calcitonin (sCT), residues 22-32; numbers count on: the mature 32-residue hormone; also called wild-type sCT(22–32); salmon calcitonin fragment 22–32; source: synthetic peptide (Genscript, HPLC-purified)
B3: sCT(22–32) N26D (peptide)
peptide: YPRTDTGSGTP-NH2
notes: salmon calcitonin (sCT), residues 22-32, with N26D; numbers count on: the mature 32-residue hormone; also called sCT(22–32) N26D backbone peptide; source: synthetic peptide (Genscript, HPLC-purified)
B4: sCT(22–32) N26D/S29HYP (peptide)
peptide: YPRTDTG[Hyp]GTP-NH2
modifications: N-terminus assumed
SMILES: C[C@@H](O)[C@H](NC(=O)[C@H](CC(=O)O)NC(=O)[C@@H](NC(=O)[C@H](CCCNC(=N)N)NC(=O)[C@@H]1CCCN1C(=O)[C@@H](N)Cc1ccc(O)cc1)[C@@H](C)O)C(=O)NCC(=O)N1C[C@H](O)C[C@H]1C(=O)NCC(=O)N[C@H](C(=O)N1CCC[C@H]1C(N)=O)[C@@H](C)O
notes: salmon calcitonin (sCT), residues 22-32, with N26D and S29HYP; printed as YPRTDTG[HYP]GTP-NH2, the hydroxyproline at 29 is written here as P; numbers count on: the mature 32-residue hormone; Residue 29 is hydroxyproline, not plain proline; source: synthetic peptide (Genscript, HPLC-purified)
B5: sCT(22–32) N26D/S29P/P32HYP (peptide)
peptide: YPRTDTGPGT[Hyp]-NH2
notes: salmon calcitonin (sCT), residues 22-32, with N26D, S29P and P32HYP; numbers count on: the mature 32-residue hormone; Residue 32 is hydroxyproline, not plain proline; also called the mutated sCT(22–32); sCT(22–32) with the combined mutations (N26D, S29P, and P32HYP); source: synthetic peptide (Genscript, HPLC-purified)
B6: sCT(22–32) N26D/S29A (peptide)
peptide: YPRTDTGAGTP-NH2
notes: salmon calcitonin (sCT), residues 22-32, with N26D and S29A; numbers count on: the mature 32-residue hormone; source: synthetic peptide (Genscript, HPLC-purified)
B7: sCT(22–32) S29P (peptide)
peptide: YPRTNTGPGTP-NH2
notes: salmon calcitonin (sCT), residues 22-32, with S29P; numbers count on: the mature 32-residue hormone; source: synthetic peptide (Genscript, HPLC-purified)
B8: sCT(22–32) N26D/S29V (peptide)
peptide: YPRTDTGVGTP-NH2
notes: salmon calcitonin (sCT), residues 22-32, with N26D and S29V; numbers count on: the mature 32-residue hormone; source: synthetic peptide (Genscript, HPLC-purified)
B9: sCT(22–32) N26D/S29P (peptide)
peptide: YPRTDTGPGTP-NH2
notes: salmon calcitonin (sCT), residues 22-32, with N26D and S29P; numbers count on: the mature 32-residue hormone; source: synthetic peptide (Genscript, HPLC-purified)

Experiments:
CTR ECD = biological target: T1, CTR ECD; assay: FP competition peptide binding assay with purified CTR ECD, FITC-sCT(22–32) probe; settings: for Ki: CTR ECD 500 nM, FITC-sCT(22–32) 10 nM, mean ± SD of N = 3 independent experiments
Text: The overall procedures of FP peptide binding assay with receptor ECDs and FITC-labeled peptide probes were previously described. […] A SpectraiD5 (Molecular Devices, San Jose, CA, USA) was used to measure fluorescence polarization/anisotropy. Background (reaction buffer only) was subtracted for anisotropy calculation. For the SpectraiD5, G factor (0.38 for FITC-sCT(22–32) and 0.41 for FITC-AC413(6–25) and FITC-AC413(6–25) Y25P) was used to correct the instrumental bias for anisotropy calculation. The polarization (mP) of the FITC-peptide probes only (No receptor ECD) was set close to 50 mP. For the saturation binding assay, the anisotropy values were re-calculated when total fluorescence intensity was changed by more than 10% as previously described. […] Anisotropy values were used to produce non-linear regression curves with PRISM 5.0 (GraphPad software, San Diego, CA, USA) as previously described. KI indicates affinity values obtained from competition binding assay and it was calculated from the non-linear regression curves of anisotropy by using equations previously described. Concentrations of the FITC-labeled peptide and the total receptor protein and the affinity of the FITC-labeled peptide for the receptor protein were incorporated into the equations for the KI calculation of the competitive peptide ligand. Two technical replicates were used for each receptor concentration in the peptide-binding curve. SEM of the anisotropy values of the two replicates at each receptor concentration were presented as error bars in the representative peptide-binding curves. When the error bars were shorter than the height of the symbol, they were omitted in the representative curves. At least three independent peptide binding experiments were performed to obtain three independent peptide-binding curves. Mean and standard deviation of peptide ligand affinity were calculated from them.

[1] = biological target: T2, calcitonin receptor extracellular …; assay: fluorescence polarisation; competition binding, full curves: FITC-sCT(22–32) probe 10 nM, CTR ECD 500 nM, competitive peptide at multiple concentrations, all in solution; KI from non-linear regression of anisotropy; settings: both partners purified
[2] = biological target: T3, RAMP2-CTR ECD fusion protein …; assay: fluorescence polarisation; competition binding, full curves: FITC-AC413(6–25) Y25P probe 10 nM, RAMP1-CTR ECD 77 nM, RAMP2-CTR ECD 67 nM or RAMP3-CTR ECD 252 nM, competitive peptide at multiple concentrations, all in solution; KI from non-linear regression of anisotropy; settings: both partners purified
[3] = biological target: T4, RAMP3-CTR ECD fusion protein …; assay: as above; settings: both partners purified
[4] = biological target: T5, RAMP1-CTR ECD fusion protein …; assay: as above; settings: both partners purified
[5] = Figure 2b experiment set, read-out: pKI Mean ± SD (converted)
[6] = Figure 1d experiment set, pKI = –log10[KI] (M)

Row | Molecule | Ki [1] | pKI [1] | Ki [2] [nM] | pKI [2] | Ki [3] [nM] | pKI [3] | Ki [4] [nM] | pKI [4] | other results
1 | C[C@@H](O)[C@H](NC(=O)[C@H](CC(=O)O)NC(=O)[C@@H](NC(=O)[C@H](CCCNC(=N)N)NC(=O)[C@@H]1CCCN1C(=O)[C@@H](N)Cc1ccc(O)cc1)[C@@H](C)O)C(=O)NCC(=O)N1C[C@H](O)C[C@H]1C(=O)NCC(=O)N[C@H](C(=O)N1CCC[C@H]1C(N)=O)[C@@H](C)O [sCT(22–32) N26D/S29HYP] (H-YPRTDTG[Hyp]GTP-NH2; N-terminus assumed) | – | – | – | – | – | – | – | – | Ki (CTR ECD; Figure 3b experiment set, read-out: pKI Mean ± SD (converted)): 3.16e-06 M; affinity decrease for the CTR ECD compared to sCT(22–32) with N26D/S29P mutations (CTR ECD; Figure 3b, ratio of KI values, versus sCT(22–32) N26D/S29P): 13 fold
2 | YPRTDTGSGTP-NH2 [sCT(22–32) N26D] | – | – | – | – | – | – | – | – | Ki (CTR ECD; [5]): 9.77e-07 M; Ki (CTR ECD; [6]): 1e-06 M
3 | YPRTDTGVGTP-NH2 [sCT(22–32) N26D/S29V] | – | – | – | – | – | – | – | – | Ki (CTR ECD; [5]): 5.89e-07 M
4 | YPRTNTGPGTP-NH2 [sCT(22–32) S29P] | – | – | – | – | – | – | – | – | Ki (CTR ECD; [6]): 3.47e-07 M
5 | B1 | 887 nM | 6.05 -log10(M) | 1430 | 5.85 -log10(M) | 995 | 6 -log10(M) | 887 | 6.05 -log10(M) | –
6 | B2 | 2030 nM and 1760 nM | 5.75 -log10(M) and 5.69 -log10(M) | 2800 | 5.55 -log10(M) | 2560 | 5.59 -log10(M) | 2550 | 5.59 -log10(M) | –
7 | B3 | 980 nM and 1000 nM | 6.01 -log10(M) and 6 -log10(M) | – | – | – | – | – | – | –
8 | B4 | 3180 nM | 5.5 -log10(M) | – | – | – | – | – | – | –
9 | B5 | 95 nM | 7.02 -log10(M) | 340 | 6.47 -log10(M) | 118 | 6.93 -log10(M) | 124 | 6.91 -log10(M) | –
10 | B6 | 437 nM | 6.36 -log10(M) | – | – | – | – | – | – | –
11 | B7 | 343 nM | 6.46 -log10(M) | – | – | – | – | – | – | –
12 | B8 | 591 nM | 6.23 -log10(M) | – | – | – | – | – | – | –
13 | B9 | 239 nM and 314 nM | 6.62 -log10(M) and 6.5 -log10(M) | 470 | 6.33 -log10(M) | 333 | 6.48 -log10(M) | 381 | 6.42 -log10(M) | –
